The values that follow are results of earlier work, collected in article PMC11402941.

In one data set the target is PSGL-1 (Homo sapiens) (UniProt Q14242).
The target of the next data set is VSIG3 (Homo sapiens) (UniProt Q5DX21).
Sequence of UniProt Q5DX21 (Q5DX21 23-241): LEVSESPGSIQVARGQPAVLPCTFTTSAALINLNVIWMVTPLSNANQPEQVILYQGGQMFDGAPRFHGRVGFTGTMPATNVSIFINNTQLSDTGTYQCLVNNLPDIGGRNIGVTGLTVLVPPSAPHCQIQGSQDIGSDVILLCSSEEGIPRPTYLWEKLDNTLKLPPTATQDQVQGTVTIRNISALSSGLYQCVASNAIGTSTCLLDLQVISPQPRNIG

Sequence of UniProt Q14242 (Q14242 42-320): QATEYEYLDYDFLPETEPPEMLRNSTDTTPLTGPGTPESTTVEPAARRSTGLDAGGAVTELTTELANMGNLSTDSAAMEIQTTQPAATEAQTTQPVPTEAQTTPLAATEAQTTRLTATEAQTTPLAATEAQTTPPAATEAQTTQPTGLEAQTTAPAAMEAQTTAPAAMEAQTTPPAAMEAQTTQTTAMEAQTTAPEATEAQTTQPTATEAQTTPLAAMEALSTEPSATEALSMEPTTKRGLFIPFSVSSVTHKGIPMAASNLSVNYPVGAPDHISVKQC

In general, Kd refers to the concentration at which binding is half-saturated. As for VISTA (from UniProt Q9H7M9), the values for the Kd with PSGL-1 (Homo sapiens) and with VSIG3 (Homo sapiens) were 4 nM and 80 nM, respectively.
